Paper PMC10901556, “Conservation of Affinity Rather Than Sequence Underlies a Dynamic Evolution of the Motif-Mediated p53/MDM2 Interaction in Ray-Finned Fishes” (Molecular Biology and Evolution, 2024)
Where no end group is shown, it is not given here.

B2: MDM2_(D.rerio) SWIB domain (domain or fragment)
chain: SQISKVDNEKLVRPKVQLKSLLEDAGADKDVFTMKEVMFYLGKYIMSKELYDKQQQHIVHCGEDPLGAVLGVKSFSVKEPRALFALINRNLVT

Key:
Test in all cases: fluorescence polarisation; displacement: complex of MDM2 (0.2-2 μM) and FITC-p53TAD_(human)^15–26 (15 nM) displaced by increasing unlabeled p53TAD peptide or p53TAD^full-length; KD calculated from IC50 (Nikolovska-Coleska et al. 2004); 20 mM sodium phosphate pH 7.4, 150 mM NaCl, 1 mM TCEP
Conditions in all cases: both partners purified
[1] = target: B2
[2] = target: T1, p53TAD_(H.sapiens)^15–27 (Homo sapiens (human), N-terminal acetylated)
T1 construct: also called p53TAD_(human)^15–27; Homo sapiens (human) p53TAD^15–27; source: bought: GeneCust (France), peptide

[3] = target: T2, MDM2 SWIB domain from Takifugu rubripes (Japanese puffer) (Takifugu rubripes (Japanese puffer))
T2 construct: MDM2 SWIB domain, Takifugu rubripes; pETM33 vector; Construct limits are in supplementary Spreadsheet S5; also called MDM2 T. rubripes; source: E. coli BL21 (DE3), purified (glutathione agarose, PreScission cleavage, Nickel Sepharose flow-through, SEC); not shown: His6, N-terminal, cleaved; GST, N-terminal, cleaved

B1: Danio rerio (zebrafish) p53TADP2 p53TAD^15–27 (peptide)
peptide: Ac-SQEFAELWEKNL
notes: numbers count on: human p53TAD; also called p53TAD^15–27_(D.rerio); source: bought: GeneCust (France), peptide
B1 gave a Kd [1] of 3600 ± 300 nM.

In the case of B2, the Kd [2] is reported as 790 ± 50 nM.

B3: Takifugu rubripes (Japanese puffer) p53TADP1 p53TAD^full-length (domain or fragment)
chain: MTLNEMTSSSMFLCRSSSDLPAHHRGRMEDEGFSLPLSQDTFQDLWENVAAPSIVTIPTTSLENEQWHQELLMNYPELPFNEELFNLPSEMASKDSANLSTPTVPV
Binder B3 has a Kd [3] of 470 ± 30 nM.
